Measured values taken from the supplement of paper PMC7877785.
± gives the uncertainty stated by the source.

Experiment: self-splicing fitness, log relative to wild type (ln ratio); higher = more splicing; Tetrahymena group I intron in knt gene, E. coli kanamycin selection, DiMSum; sequences stand for … in CUCUCU…GGAGGGAAAAGUUAUCAGGCAUGCACCUGGUAGCUAGUCUUUAAACCAAUAGAUUGCAUCGGUUUAAAAGGCAAGACCGUCAAAUUGCGGGAAAGGGGUCAACAGCCGUUCAGUACCAAGUCUCAGGGGAAACUUUGAGAUGGCCUUGCAAAGGGUAUGGUAAUAAGCUGACGGACAUGGUCCUAACCACGCAGCCAAGUCCUAAGUCAACAGAUCUUCUGUUGAUAUGGAUGCAGUUCACAGACUAAAUGUCGGUCGGGGAAGAUGUAUUCUUCUCAUAAGAUAUAGUCGGACCUCUCCUUAAUGGGAGCUAGCGGAUGAAGUGAUGCAACACUGGAGCCGCUGGGAACUAAUUUGUAUGCGAAAGUAUAUUGAUUAGUUUUGGAGUACUCGUGGUCG
Procedure, shortened: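 Six replicate transformations of E. coli BL21(DE3) with a pET-22b(+) library were grown overnight at 37°C or 30°C. The library randomised all eight P1ex-region intron nucleotides, the intron lying in the knt kanamycin-resistance gene, and plates were LB agar with or without 25 μg/mL kanamycin plus 100 μg/mL carbenicillin, 50 μM IPTG and 0.2% rhamnose. Pooled colonies were amplicon-sequenced on an Illumina HiSeq 2500, and fitness is the DiMSum error-weighted combination of wild-type-normalised replicate fold changes, kanamycin versus none.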

## UUGCAGCAAUAUUACGCUUA
30 °C
  self-splicing fitness (ln): -0.263 ± 0.12
37 °C
  self-splicing fitness (ln): -0.0443 ± 0.13

## UUGCAGCAAUAUUACGGCGU
30 °C
  self-splicing fitness (ln): -0.34 ± 0.051
37 °C
  self-splicing fitness (ln): 0.352 ± 0.065

## UUGCAGCAAUAUUACGGGGA
30 °C
  self-splicing fitness (ln): -1.37 ± 0.13
37 °C
  self-splicing fitness (ln): -0.636 ± 0.12

## UUGCAGCAAUAUUACGGGGC
30 °C
  self-splicing fitness (ln): -3.99 ± 0.2
37 °C
  self-splicing fitness (ln): -2.35 ± 0.2

## UUGCAGCAAUAUUACGGUAG
30 °C
  self-splicing fitness (ln): -0.823 ± 0.057
37 °C
  self-splicing fitness (ln): -0.064 ± 0.07

## UUGCAGCAAUAUUACGUAAA
30 °C
  self-splicing fitness (ln): -1.25 ± 0.095
37 °C
  self-splicing fitness (ln): -0.427 ± 0.12

## UUGCAGCAAUAUUACGUACA
30 °C
  self-splicing fitness (ln): 0.118 ± 0.11
37 °C
  self-splicing fitness (ln): -0.0402 ± 0.13

## UUGCAGCAAUAUUACGUACU
30 °C
  self-splicing fitness (ln): -1.36 ± 0.12
37 °C
  self-splicing fitness (ln): -0.848 ± 0.12

## UUGCAGCAAUAUUACGUAGC
30 °C
  self-splicing fitness (ln): -2.96 ± 0.3

## UUGCAGCAAUAUUACGUCUC
30 °C
  self-splicing fitness (ln): -1.21 ± 0.12
37 °C
  self-splicing fitness (ln): -0.311 ± 0.16

## UUGCAGCAAUAUUACGUGAU
30 °C
  self-splicing fitness (ln): -3.85 ± 0.2
37 °C
  self-splicing fitness (ln): -2.06 ± 0.17

## UUGCAGCAAUAUUACGUGGA
30 °C
  self-splicing fitness (ln): -2.52 ± 0.18
37 °C
  self-splicing fitness (ln): -1.27 ± 0.13

## UUGCAGCAAUAUUACGUUCC
37 °C
  self-splicing fitness (ln): -2.16 ± 0.27

## UUGCAGCAAUAUUACGUUUU
30 °C
  self-splicing fitness (ln): -3.97 ± 0.22
37 °C
  self-splicing fitness (ln): -1.85 ± 0.13

## UUGGAGCAAUAUUACGAACG
37 °C
  self-splicing fitness (ln): -0.295 ± 0.28

## UUGGAGCAAUAUUACGACAU
30 °C
  self-splicing fitness (ln): -1.81 ± 0.02
37 °C
  self-splicing fitness (ln): -1.04 ± 0.036

## UUGGAGCAAUAUUACGAUGG
30 °C
  self-splicing fitness (ln): -1.53 ± 0.21
37 °C
  self-splicing fitness (ln): -1.54 ± 0.21

## UUGGAGCAAUAUUACGCAGG
30 °C
  self-splicing fitness (ln): -2.96 ± 0.28
37 °C
  self-splicing fitness (ln): -1.99 ± 0.33

## UUGGAGCAAUAUUACGCGUG
30 °C
  self-splicing fitness (ln): -3.03 ± 0.18
37 °C
  self-splicing fitness (ln): -0.323 ± 0.087

## UUGGAGCAAUAUUACGGAUG
30 °C
  self-splicing fitness (ln): -3.54 ± 0.34
37 °C
  self-splicing fitness (ln): -2.12 ± 0.4

## UUGGAGCAAUAUUACGGCGA
30 °C
  self-splicing fitness (ln): -1.32 ± 0.48

## UUGGAGCAAUAUUACGGUAG
30 °C
  self-splicing fitness (ln): -3.58 ± 0.2
37 °C
  self-splicing fitness (ln): -1.99 ± 0.18

## UUGGAGCAAUAUUACGUCGA
30 °C
  self-splicing fitness (ln): -2.6 ± 0.3
37 °C
  self-splicing fitness (ln): 0.049 ± 0.27

## UUGGAGCAAUAUUACGUGGU
30 °C
  self-splicing fitness (ln): -2.84 ± 0.36
37 °C
  self-splicing fitness (ln): -2.56 ± 0.32

## UUGGAGCAAUAUUACGUGUA
30 °C
  self-splicing fitness (ln): -3.69 ± 0.29

## UUGGAGCAAUAUUACGUUAU
30 °C
  self-splicing fitness (ln): -2.79 ± 0.28
37 °C
  self-splicing fitness (ln): -0.885 ± 0.26

## UUGUAGCAAUAUUACGACAG
30 °C
  self-splicing fitness (ln): -0.234 ± 0.21
37 °C
  self-splicing fitness (ln): -0.137 ± 0.25

## UUGUAGCAAUAUUACGAUAA
30 °C
  self-splicing fitness (ln): -1.44 ± 0.11
37 °C
  self-splicing fitness (ln): -0.33 ± 0.17

## UUGUAGCAAUAUUACGAUGA
30 °C
  self-splicing fitness (ln): -0.47 ± 0.13
37 °C
  self-splicing fitness (ln): 0.0216 ± 0.12

## UUGUAGCAAUAUUACGAUGU
30 °C
  self-splicing fitness (ln): -3.86 ± 0.29
37 °C
  self-splicing fitness (ln): -0.334 ± 0.12

## UUGUAGCAAUAUUACGAUUC
30 °C
  self-splicing fitness (ln): -3.76 ± 0.34
37 °C
  self-splicing fitness (ln): -3.2 ± 0.3

## UUGUAGCAAUAUUACGCGUC
30 °C
  self-splicing fitness (ln): -3.51 ± 0.42
37 °C
  self-splicing fitness (ln): -0.917 ± 0.26

## UUGUAGCAAUAUUACGCUCA
30 °C
  self-splicing fitness (ln): -1.27 ± 0.14
37 °C
  self-splicing fitness (ln): 0.0359 ± 0.18

## UUGUAGCAAUAUUACGCUCC
30 °C
  self-splicing fitness (ln): -2.12 ± 0.43

## UUGUAGCAAUAUUACGGAAG
30 °C
  self-splicing fitness (ln): -3.94 ± 0.33
37 °C
  self-splicing fitness (ln): -1.7 ± 0.36

## UUGUAGCAAUAUUACGGAUA
30 °C
  self-splicing fitness (ln): -2.68 ± 0.24
37 °C
  self-splicing fitness (ln): -1.42 ± 0.23

## UUGUAGCAAUAUUACGGGGG
30 °C
  self-splicing fitness (ln): -2.82 ± 0.41

## UUGUAGCAAUAUUACGGUAA
30 °C
  self-splicing fitness (ln): -1.2 ± 0.16
37 °C
  self-splicing fitness (ln): -0.727 ± 0.13

## UUGUAGCAAUAUUACGGUAU
30 °C
  self-splicing fitness (ln): -0.659 ± 0.35

## UUGUAGCAAUAUUACGGUGG
30 °C
  self-splicing fitness (ln): -1.75 ± 0.12
37 °C
  self-splicing fitness (ln): -1.28 ± 0.17

## UUGUAGCAAUAUUACGUAAC
37 °C
  self-splicing fitness (ln): -2.12 ± 0.43

## UUGUAGCAAUAUUACGUCGA
30 °C
  self-splicing fitness (ln): -0.938 ± 0.088
37 °C
  self-splicing fitness (ln): -0.226 ± 0.11

## UUGUAGCAAUAUUACGUGGG
30 °C
  self-splicing fitness (ln): -4.04 ± 0.46
37 °C
  self-splicing fitness (ln): -2.06 ± 0.24

## UUGUAGCAAUAUUACGUUCG
30 °C
  self-splicing fitness (ln): -0.926 ± 0.14
37 °C
  self-splicing fitness (ln): -0.622 ± 0.16

## UUUAAGCAAUAUUACGAAGA
30 °C
  self-splicing fitness (ln): -2.77 ± 0.27
37 °C
  self-splicing fitness (ln): -1.33 ± 0.21
